Assay: soluble on expression in E. coli; label from the status in PepcDB or PDB records

Sequence | soluble on expression in E. coli
MDQDYERRLLRQIVIQNENTMPRVTEMRRTLTPASSPVSSPSKHGDRFIPSRAGANWSVNFHRINENEKSPSQNRKAKDATSDNGKDGLAYSALLKNELLGAGIEKVQDPQTEDRRLQPSTPEKKGLFTYSLSTKRSSPDDGNDVSPYSLSPVSNKSQKLLRSPRKPTRKISKIPFKVLDAPELQDDFYLNLVDWSSLNVLSVGLGTCVYLWSACTSQVTRLCDLSVEGDSVTSVGWSERGNLVAVGTHKGFVQIWDAAAGKKLSMLEGHTARVGALAWNAEQLSSGSRDRMILQRDIRTPPLQSERRLQGHRQEVCGLKWSTDHQLLASGGNDNKLLVWNHSSLSPVQQYTEHLAAVKAIAWSPHQHGLLASGGGTADRCIRFWNTLTGQPLQCIDTGSQVCNLAWSKHANELVSTHGYSQNQILVWKYPSLTQVAKLTGHSYRVLYLAMSPDGEAIVTGAGDETLRFWNVFSKTRSTKESVSVLNLFTRIR | soluble
MGSDKIHHHHHHQDGNQPALVDALVVNARTPGPAWWSVSKGDKKVWVLGIGAPVPADAKWDGRAFERRVKASRQLILVPPSKTRFEKNTIKADRKWLDELTEAERARLAEVATQTGRKLEFYTLFRPNFAGLLINSELQARAKPKMGKLLDLSVRARRLGARLVPAGGLDAQAMKASFQVGGKDSLICLRWAMRPRDAAALREQRAQAWMRGDVRTLLVGPAAYDPCVQAMAAMQASLENNEGALANTIAATLDRGDGAVALVGLVPLLREGGVLDQLRKRGYLIETPAQMDDED | not soluble
MAKRVIIAGGNIAGTIVANRLVQKLEHEVNKGDVEIVALNKSDEHIYLPGQLLVGFGLETPGELVRKESELLDPRIKFLHGQKGTISKIDVANHSVQTADGVSHSYDYLVITTGVDYTWDEIPGYRSAAHTVYEYDDAIKMREALEKFDGGTIVVNTAKLPHRCPVAPLEVTLILDDYLRKRGIRDKTKIIYTYPVQGVFGRPITNKFMLRLFEQRGIEVHSPFTVTSVDPNNKVIESQEGEKLKFDMLIGIPPNMGAKVIEDSGIGDRRRWVPTDKFTLRMKDHSNVYVMGDATDLPVSKAGSTADFESYTVAHNIANDIKGNLGVKHYGGDVLCYIATGTDQATYIRFSYTMNESPPPPSYVHWWGKIMYNKMYWTVTAKAVVLEHHHHHH | not soluble
MGSDKIHHHHHHMVDGMKHLILKVTNRCNLNCIYCYANNKNNKDMDFKTAKNAIDYLLNLDNQIKIQFTGGEPLLNFNLIEKIVDYCNDNYSNCNIQYAIQTNATLINEKIAEKIKELDIKVGISIDGLEINDILRPYKNGKPSTLDTLKGMYILKSYNIPFGITTVVTNKNLPYLEEFVKYLIAFGVKSISFDLLKPKKKEHLTLMPNIEEFNKLLNKLGRYPIYIKNLQKRPKDKYCYLNSGDLLFVNEFGDIYLCPTLEGLSCLGNINDKNKIKLPKVKSKGCYAREFLIKTFKK | not soluble
AAGAAPVDISTLPRVKVDLVKPPFVHAHDQVAKTGPRVVEFTMTIEEKKLVIDREGTEIHAMTFNGSVPGPLMVVHENDYVELRLINPDTNTLLHNIDFHAATGALGGGALTQVNPGEETTLRFKATKPGVFVYHCAPEGMVPWHVTSGMNGAIMVLPRDGLKDEKGQPLTYDKIYYVGEQDFYVPKDEAGNYKKYETPGEAYEDAVKAMRTLTPTHIVFNGAVGALTGDHALTAAVGERVLVVHSQANRDTRPHLEGGHGDYVWATGKFRNPPDLDQETWLIPGGTAGAAFYTFRQPGVYAYVNHNLIEAFELGAAGHFKVTGEWNDDLMTSVVKPASM | soluble
GPGSYDSNLYVASLPEWFTDADLHELFKRFGPIVSAKVMCHKGTHHCKGYGFVLFQRTDDAAVARSEMIGHVVGGNKIQVRRARSAASAPLTEAASAVSGTFTESSGSTRTSSSNVTPINYSVHVVPSQQPSFNPLYPATTALTPTYVLTNPSAPVQNATHTQPAMLVAVPNGRTMVQGAGDVMYMVLASSAQQMQSTSAIY | not soluble
MRAERRKQLFRLLGDLPDRRPISVETLRIEEREENIVETLLLDLNGHEKAPAYFVKPKKTEGPCPAVLFQHSHGGQYDRGKSELIEGADYLKTPSFSDELTSLGYGVLAIDHWGFGDRRGKAESEIFKEMLLTGKVMWGMMIYDSLSALDYMQSRSDVQPDRIGTIGMSMGGLMAWWTAALDDRIKVCVDLCSQVDHHVLIKTQNLDRHGFYYYVPSLAKHFSASEIQSLIAPRPHLSLVGVHDRLTPAEGVDKIEKELTAVYAGQGAADCYRVVRSASGHFETAVIRHEAVRFLQKWLLEHHHHHH | not soluble
MADLLPPLTAAQVDAKTKVDEKVDYSNLPSPVPYEELHREALMSLKSDNFEGLRFDFTRALNQKFSLSHSVMMGPTEVPAQSPETTIKIPTAHYEFGANYYDPKLLLIGRVMTDGRLNARLKADLTDKLVVKANALITNEEHMSQAMFNFDYMGSDYRAQLQLGQSALIGATYIQSVTNHLSLGGEIFWAGVPRKSGIGYAARYETDKMVASGQVASTGAVVMNYVQKISDKVSLATDFMYNYFSRDVTASVGYDYMLRQARVRGKIDSNGVASALLEERLSMGLNFLLSAELDHKKKDYKFGFGLTVG | not soluble
MGSDKIHHHHHHMYGKTELMMSNACGLDFGTSNSTVGWTRPGHPAALLPLEDGKLTLPSVIFFHAEDPLVSYGRAALDDYLAGYEGRLMRSLKSLLGTSMMEDSTEVMGQAMPFRKLLAHFIGELKARAERSAGTTFTRAVLGRPVFFIDEDPAADRLAEQTLAEIARDAGFRDIEFQYEPIAAAFDYEAKISDEELVLVVDIGGGTSDFSLVRLSPERAKRIDRREDILANGGVHIGGTDFDRALSLARAMPLLGLGSKLRSGKEMPSSQYFDLASWHTINLVYTRKAWSIVMDNYRDAADTVKLDRLIRLIRERAGHWLAIQMEAAKIALSGVDRTDVDLHRIEPELMLSITRDEFDESIGKLVAKTEKTVTDMLASAGVDGASVDTILFTGGSSSVPMLRHQLGQLLPRARRVEGDLFGGIGSGLALDAARKFG | not soluble
MLWKEYEEASSLTARVVKHLDKFDMIVQADKYEKTHEIDLQQFFTSTVGVLKMEPFATWDRELRENRMKRINKAE | not soluble
MSLKRKVLFTAVMVLAGLQLLSGCGKTEASANDTVVLRYAYASNSQPVIDSMKKFGELVEEKTDGKVQIEYFPDGQLGGETELIELTQTGAIDFAKVSGSALESFSKDYSVFAIPYIFDNEKHFFKVMDNQALMQPVYDSTKKLGFVGLTYYDSGQRSFYMSKGPVTSPDDLKGKKIRVMQSETAIKMVELLGGSPVPMGSSEVYTSLQSNLINGAENNEFVLYTAGHGGVAKYYSYDEHTRVPDIVIMNEGTKERLTAKQEQAIEEAAKESTAFEKTVFKEAVEEEKKKAQAEYGVVFNQVDSEPFQKLVQPLHESFKNSSEHGELYQAIRQLADEGGSHHHHHH | soluble
MGSDKIHHHHHHAHTRAIDNIANSGDMVTMSGTVKLYAKTAQDGGVVNTLTLQVSDFTGLDTGTGSKTVEISGAATYIEVEGNIDGSATKTDDVNSRQGGVTSDAVRVVGGAAIVTGGSTSTCSIEVAPEMARVEVKGDLGSSFTNLAELKVKGIYLNNVKQKRADAAVVKTTKASAPDWTTAYTAGGTKSNLYNTFIGTPITKFDSGKADGYNFFPQDFHIASLSAAATTKEEAAKYHPHVIMEVEYKMNGVGALSKTGWLNVVALKDNTSSSYIGEFANGKVYQLDLADIKKIMDVPVPPVTVDPDPDAVNVDVTVTVKGWELVFIKPEV | not soluble
MGSDKIHHHHHHMLAICQLVKMKRICFYLKMQKGYMALNKKLKGDGEVLKDSFLAGAGKAKIVFSQDDFPIKQFTGIHDNLYIRVLLIDSNQRFAFVSIDLTSLTKDRIDFYKSLIHQLTSIDEGNIWVSVTHTFSAPHIPLESQKDDEEKIISMMLFKTSAALREAINQALLSMKPADIGFSYSSCPLNINRNIPTRLGWWLGRNDDGYSNHDVRTVTLKQENNEIISILYNFDVQASVMDNVSTKSGELLISSDLVGKASSDIENTFGKNSVAIFLPGSAGDQAPIFKGSNWKIMKNNRLVCSSIHEEAYSLVDQLGVKLSQSVQRAVFKTEKFADNCEIKINHYSVYLPEQRVKYSTKALRPSKKYQFEKPVIHFLSLLIFCT | not soluble
MTPWLGLIVLLGSWSLGDWGAEACTCSPSHPQDAFCNSDIVIRAKVVGKKLVKEGPFGTLVYTIKQMKMYRGFTKMPHVQYIHTEASESLCGLKLEVNKYQYLLTGRVYDGKMYTGLCNFVERWDQLTLSQRKGLNYRYHLGCNCKIKSCYYLPCFVTSKNECLWTDMLSNFGYPGYQSKHYACIRQKGGYCSWYRGWAPPDKSIINATDP | not soluble
MNLTQMLPDLDDVPESLLDEAIFDSFLSWTRSKDLALYPAQEEAALGILAGDNVILATPTGSGKSMVAIAAHFIAMARGQRSFYTAPIKALVNEKFFALCDIFGPESVGMMTGDATVNGSAPIICATAEIVANIALRDGTDADIDQVVMDEFHYYSEPGRGWAWQVPLLELPRTQFLLMSATLGDTTFIQKDLSDRTGRTTNLVAGATRPVPLQFSYVYTPVHETIQDLLDTNNAPIYVVHFTQREAIERAQSLTSMTVIDSETKEKIATEIGNFKFTTTFGHTLSKLLRKGIGVHHAGMLPKYRRLVEKLSQTGLLKIICGTDTLGVGINVPIRTVLFTGLAKFDGSKQRILASREFHQIAGRAGRAGYDTVGNVVIEAPEHEIENWRLRQRAGSDLKKLKKLRKKSARDGEVTWGEKTYERLSEAEPENLQSQFRISNSMLLNVIARSGDAYVHLKHLLRTNHDTRDKQNKDILTALELFRGLVAAGIVEKLDSPDSTGRKYVITEDLRRDFALNQPLAPFALAALEILDKESTSYALDVISVFESILEDPRVVLIAQQKQARGEEIAALKAEGVEYTERMNIVEEISWPKPLEEILEPAFDTYCSGHPWAKEFTLSPKSIVRDMIEHGMTFSDFIATYGLSRSEGVVLHYLTDAWKTLSHSVPTEYVSDELEEIIEWLGELVRQVDSSLIDEWANMADPDAPISQDTVDQQRAFGVEDPNAITANSRAFAVMVRNLMFRMVQLFAAEEEEKLEALTDYLDEQPDFSEALDVYFDEYSDLDVGPDARGREYFLLKKDGRIWSVRQIIKDPNDDRAFSFAATVDLNASDAADEVRFAKFSIDS | not soluble
MGLPKSAYKKLLIDCPTRVINKNCAQRVKDVSPLITNFEKWSDKRKKLYFKDEEEMVGQFHLENFNLKNNLYGRLLASPMRAEKISKLKSCRELLIPLKVVPSTGKDQHADKDKLKLVPTLDYSKSYKSSYVLNSASIVQDNLAAATSWFPISVLQTSTPKSLEVDSSTFITEYNANLHAFIKARLSVIPNVGPSSINRVLLICDKRKTPPIEIQVVSHGKGLPITQSVFNLGYLHEPTLEAIVSKDAVTNGIYLDADNDKDLIKHLYSTLLFHSVN | not soluble
MTQTNNRLFDEIGRLMNDAAGAAQGVKREIDGVVRSQAEKILRDLDLVKREEFEAFKEMVRLTREENEALKARIAALEARQGGGSEPPTALA | not soluble
MSMDIVMKSDEQPFISAPVCFKTFAFFAKASAEECKLLASGSNARESFQQATGLSEKITEDIYRQIDVSHISSMVFNREMDGGIERNRLGSQAILLDENSRRRNPQFKSIALRSLRYDHIDHRALARKSPHLMPPTYIKEEIMDDELDEVKEEEVSVGEAALPTAKVELNMDHPEKDLIISTSVYLGYTRTLQYHEIRLGRLMKVTDRLELTGDHTLRDLKNAFSCPIDFSFSDDFSEKKPSFKDMAKNKWPSSMFFIHDTFYIDSNTGDQFVDPSITIRTWAKKFDYIGPMHVKQMSETRIGDLICRLGQPYVYIHQGVCEHLIVFNDLCLRDESHTNVEFPRRLVERNFRRIACDTCKEASAHWMIVDHDNLLPNSPGYLCSSCYKEFCFDVNGNKVCQFKAVPYCDRKDIGDGRQFFTELDL | not soluble

Reference: the DeepSol protein solubility set
